# Experiment: soluble on expression in E. coli; label from the status in PepcDB or PDB records
row,Sequence,soluble on expression in E. coli
1,MSKLEAILSQEVEAEIQALLQEAEAKAEAVKREAEEKAKALLQARERALEAQYRAALRRAESAGELLVATARTQARGEVLEEVRRRVREALEALPQKPEWPEVVRKLALEALEALPGAKALVANPEDLPHLEAMARERGVELQAEPALRLGVRAVGAEGKTQVENSLLARMDRAWDAMSSKVAQALWG,soluble
2,AESGFRQHITANGESGFKAEPDRYHLYLSYACPWACRTLIMRKLKGLEKIISVSFSDPVMGKNGWSYGESGNETADHINHIHYLKELYLVARKDYTGRVTVPVLWDKKKKTIVNNESSEIMRMLNSEFNAFSSTDHDYYPKQWRQKIDEINQLVYENINN,not soluble
3,MWGACKVKVHDSLATISITLRRYLRLGATMAKSKFEYVRDFEADDTCLAHCWVVVRLDGRNFHRFAEKHNFAKPNDSRALQLMTKCAQTVMEELEDIVIAYGQSDEYSFVFKRKTNWFKRRASKFMTHVASQFASSYVFYWRDYFEDQPLLYPPGFDGRVVVYPSNQTLKDYLSWRQADCHINNLYNTVFWALIQQSGLTPVQAQGRLQGTLAADKNEILFSEFNINYNNEPPMYRKGTVLIWQKVDEVMTKEIKLPTEMEGKKMAVTRTRTKPVPLHCDIIGDAFWKEHPEILDEDS,soluble
4,MTERSPLRVGIGGPVGSGKTALTLNLCRALRNKYNMAVVTNDIYTKEDSNFLTRNEAMTPDRIVGVETGGCPHTAIREDASINLAAIDDLCEKFDGLELIIIESGGDNLAATFSPELSDLTLYVIDVAGGEKIPRKGGPGITKSDLLIINKTDLAPMVGANLDVMEQDAKRMRGEKPFLFSNMKTEDGLTQIIEFIEKQGLFKALEHHHHHH,soluble
5,MGSDKIHHHHHHMKELVNILDFLPEELGEKIKPMFRVKQIYQWIYQKYANNFSDMSSLPKDLRLELARNFHFSPVKCVKNEQSKDGSIKYLFELIDGLRVESVLLPMKEEKIDAEGKRISHARYTICVSSQVGCKSGCSFCLTAKGGLKRNLSAGEIVGQILWIKKQNNIPYERRVNIVYMGMGEPLDNLKNVSKAVKILAQNEGLAISPRRQTISTSGLAKQIKELGQMNLGVLLAISLHAVNDELRTELMPINKAYNIAAIMDAVREFPIDQRKRVMFEYLLIDGINDKLEHAKELVKLLNGIKAKVNLILFNPHEGSLYKRPSLENAIKFQDLLSNKGVTCTIRESKGLDISAACGQLKERAKEQ,not soluble
6,MDQAHANAASLEASDLFDADWYLAEYPDVQSLQMPPAVHYLWLGARLGRNPSPRFSTRSYLDANPDVAQAGINPLLHFLLAGRDEGRSGTILAAPSRGSTETDVNASTFGEHRPYVFLPPADLDRIAAQWSKDSARPDAQGRGIAIFSAITGSYDSINHHEHLIPGADYLLFSDAPKPRYVYQPRQAPWFDCDTVRAARFIKTHPHMLLGGYRIAVWIDGNILIRGDLLPLVQRFEESGLAFGAVPHPLRQSVYAEAVECMKRGKDDEATIRRQMQRYRREEFDCEDLIESNLLMFRLGHPSLAPLLDTWWAQIESGSRRDQLSLNYALHKTGVEWLALTQRPHSVRDHPALALMHHRSQFNPAEPGVCLPRPRERTFAEVRAERIAAQSARRADVIVCVHNAPEMVARCLDSVRTGQNPDRHRIIIIDDGSGRDTAELVSRFAADTPNTVLIRNAVAGGYTRAANQGLKAMDADMAILLNSDTVVAPGWIEKLLDAAFSNPGVGIVGPMSSAASHQSIPEHQSRHDQTAINDLPPGWSAADMDAWCERMAPADFLPRVPLVHGFCFAVTREAVERIGYLDEDSFPDGYGEENDYCLRATDAGVGLAIATHTYVFHEKSQSYQSDRRISLMKRGNGKIRELHGDERVARAVRSMQQNPHLGRLRTAAARLFAVTTPETPALEHHHHHH,not soluble
7,MGSDKIHHHHHHMGQSSEDAAMTLQPFDGFGLGLRPPHYRAFLDSERPLVDFVEVISENFMVGGGRPLHVIDAVRERYPVALHGVSMSVGSADGVKLDYLRRLKGLADRVDPMWVSDHLCWTGVEGFNSHDLLPVPYTEEAMAVVCANIALAQDVLERPLLLENPSSYVTFANDAMAEHQFLAEMCARTGCYLLLDINNIYVSASNHGFDPYEYLAAVPVDRVLQIHLAGHSQGRELLIDTHDQPVPDSVWALYEAAAGRFGPVAAMIERDDDIPPLDDLLAELDVARARWAAGRRGSLAA,not soluble
8,SNAMVKDRQIQKTKVAIYNAFISLLQENDYSKITVQDVIGLANVGRSTFYSHYESKEVLLKELCEDLFHHLFKQGRDVTFEEYLVHILKHFEQNQDSIATLLLSDDPYFLLRFRSELEHDVYPRLREEYITKVDIPEDFLKQFLLSSFIETLKWWLHQRQKMTVEDLLKYYLTMVER,soluble
9,MLAKRSIALTAATLLREPILRREDIADSLLARDILADARQQATQILALEQEKAEHLQQQALAQFWENANAFLGELQVQREALQEQAMTAVEELLSESLRHLLDDTTLAERARALARNLAASQLNEAVATLSVHPQIADAVAEWLADSRFSEHWQLKRDATIASDSLRLSDANGAFDIAWADLRKGLLGVEPAA,not soluble
10,MFGGIENVKAAEPKVYQFDFGSGSMEPGYIGVRASDRYDRSKGYGFQTPENMRDVAASGAGVKSDAVEFLAYGTKSNNTFNVDLPNGLYEVKVTLGNTARASVAAEGVFQVINMTGDGAEDTFQIPVTDGQLNLLVTEGKAGTAFTLSALKIKKLSDQPVTNRTIYVGGDSTVCNYYPLNSSKQAGWGQMLPHYIDKHTFQVRNMASGGQIARGFRNDGQLEAILKYIKPGDYFMLQLGINDTNPKHKESEAEFKEVMRDMIRQVKAKGADVILSTPQGRATDFTSEGIHSSVNRWYRASILALAEEEKTYLIDLNVLSSAYFTSIGPERTLGLYMDGDTLHPNRAGADALARLAVQELKRQGIAGFLEHHHHHH,soluble
11,MAQVAIFKEIFDQVRKDLNCELFYSELKRHNVSHYIYYLATDNIHIVLENDNTVLIKGLKKVVNVKFSRNTHLIETSYDRLKSREITFQQYRENLAKAGVFRWITNIHEHKRYYYTFDNSLLFTESIQNTTQIFPR,not soluble
12,GIDPFTHMATFISVQLKKTSEVDLAKPLVKFIQQTYPSGGEEQAQYCRAAEELSKLRRAAVGRPLDKHEGALETLLRYYDQICSIEPKFPFSENQICLTFTWKDAFDKGSLFGGSVKLALASLGYEKSCVLFNCAALASQIAAEQNLDNDEGLKIAAKHYQFASGAFLHIKETVLSALSREPTVDISPDTVGTLSLIMLAQAQEVFFLKATRDKMKDAIIAKLANQAADYFGDAFKQCQYKDTLPKEVFPVLAAKHCIMQANAEYHQSILAKQQYYFGEEIARLQHAAELIKTVASRYDEYVNVKDFSDKINRALAAAKKDNDFIYHDRVPDLKDLDPIGKATLVKSTPVNVPISQKFTDLFEKMVPVSVQQSLAAYNQRKADLVNRSIAQMREATTLANGVLASLNLPAAIEDVSGDTVPQSILTKSRSVIEQGGIQTVDQLIKELPELLQRNREILDESLRLLDEEEATDNDLRAKFKERWQRTPSNELYKPLRAEGTNFRTVLDKAVQADGQVKECYQSHRDTIVLLCKPEPELNAAIPSANPAKTMQGSEVVNVLKSLLSNLDEVKKEREGLENDLKSVNFDMTSKFLTALAQDGVINEEALSVTELDRVYGGLTTKVQESLKKQEGLLKNIQVSHQEFSKMKQSNNEANLREEVLKNLATAYDNFVELVANLKEGTKFYNELTEILVRFQNKCSDIVFAR,soluble
13,MYDAYTPCEVALRLPVEVTCLAFQESNQTLLAGGRAGHLYAYTISANRRGFELTNICKSFHKKAVMELKVCQREDLLLCVSDGQLMAHKLSDPEYKVETLIHKVKPVQTFARFSPKTSGDLYVIVSSRKKLYLFKWGEKDGHKEFIEVALDYNPVFLDTPTSIRCVGEMVFFSVRNEYFSMTMQKDKTTTSPSEGSTPEGWNGFVTRLLNFNCQPGIVPMIDRRRVAFVRNEIVVTTDIWGQRPANVLSDEYKFSEVPMQIVYDSPYLVGMLSKGRVEVRSIFDGQLVQTMSLPKAMTLCSGARGQVFVAALSDIWILDTSQNLRKNVSHLIQERHFELAIQLAENSNLFAEEQKLEIKKKAALNLFNQKKFDESFALFGEIKTDISEVLSIIRMFPELLPDGFQSMTGVVSDMPANDRMRALLALGSYLSEIRTEHAKHIELYNRLYSSGAAKKTDEDEKAKLLLTLRVVDTTLLKCYIKTKPMLVDSLIRLQSNACTFEDAKKILESEGRLRSLFILYETRKKHEMALDLFIDQSSRPDADPFFDDAIQQIVEYLQSLGNSNLPLILKYAKWVLAKNLEAGVQIFTSDETEMARNLNRKAVVEFLKSECPDALIPYLEHVIFKWEEPSSYFHETLLEFYVARVNTLFKDYVHAFPDDENITRAGDEDGELGLYRKRLLKFLEVSHSYSPQTVLLQLAPHAFYEERALILGRLKQHEQALAIYVNTLKNVPAAEEYCRLYYNAHDETNSQVYLMLFRTLVHPNQQQLHSIPYHADSTPFGSYRDDVSEASTLVNSTSSYQPDVNTAIKILAKHADKIDTVGALNMLPATTPLRVVFSAINAVIQTTGRQASTRKMEKSVSQCAMSKKLERKNKAQSTKIIVNFSSECVVCEKKIAVSAFVRYPDGRLAHLYCHNDSQGGNRN,not soluble
14,MGHHHHHHSHMSEDNRPLTGLAAAIAGAKLRKVSRMEDTSFPSGGNAIGVNSASSKTDTGRGNGPLPLGGSGLMEEMSALLARRRRIAEKGSTIETEQKEDKGEDSEPVTSKASSTSTPEPTRKPWERTNTMNGSKSPVISRPKSTPLSQPSANGVQTEGLDYDRLKQDILDEMRKELTKLKEELIDAIRQELSKSNTA,not soluble
15,MFAPQGLAQFIKVNVTLENGEPVFIYTDANGQVCQGDITVTQAGTITYLLNDQTLKGLKFVGVGFVTPFDGIIDAVTISSDGMLVQLVDLDKTPGTTKFQFVLSNTANTLLVLSPDPQIINRPQN,soluble
16,MMNTKVALKQLMATHFITVDVPCPECGGAMTAWKEPTPDTPPRCPPVCMECGYRSVKKKEATTAKNLYESSLIKKAKDYFLNGSVLTDRKSLHKKISNYYPSNQESTKAKNISMEFCEKTLLGEIHHLILTGGVGVGKSHLAIGCLNEILVKSNYSKKVLFVSYRELLEQLKFAMNDEEARKAITGVAMSEIKAADVVVLDDIGAELGDFNKRDEKGNLILSRASNFDIDTLTGILESRIDKPTIITSNLKSKEIKYCYGERIVSRMATHSNGFMHRFTNTKDYRLKTALEHHHHHH,soluble
17,MAKTTGILDKSLSRGKTEINLSTFAVLFSEMVLYAQNRSETVTDIHDKIASYGKQVGLRMFDIITLREKGYKRETKLLGMLMFIKSTVWKNLFGKEADKLERSNDDHCTYLLIEKDPMVNTYISVPRDKGVLNCAAFAAGIVEAILESASFKCKVTAHWHNGTAYVIQFDESVIARENSLLDSNR,not soluble
18,MGSDKIHHHHHHMKNLIFKDSQFEFQTLRVLGSSASGAADIGEVVETAQRIKEGDFKSWCDEWSKTAKSLEESAEESYSKGHFISAKKAYLRAANYYRTAEFYLHENPNNPIIGELYEKSLRCFSYVMKLNKPAIEAVKIPYENTFLPAHYYKLQNSNGKAPVLIAMTGYDGTKEEFYGLAMTALEHGMNFLTFEGPGQGEAVRKQKLFFRYDYEKVVTPVIDYVISRKEVDQAKIILWGESLGGYLAPRAAAFEHRLAACVANSGVYDFFGGILRELGNNSREEFFSAARINPEEFDKNIYSIAKLNSKVRWGIYHGMYVFGVNSPHEYILKAEDFYLKDIAEKIKCPTLVIDSDNDGILGGQSKPLYDVLRCKKEYMFFTSENGAGYHCQVGAKLIGWERILSWIEDIIK,not soluble
19,DAAKSHAPVVRSMEASLSPELKRELSDGIECIGIGGGDLHTRIVWTQYGTLPHRVGDVQCRYRIVLLPQNADAPQGWQTVWQGARPRNKDSKFALIRKIGENI,not soluble
